50 sequences from the supplement of paper PMC9112550, “Optimization of the antimicrobial peptide Bac7 by deep mutational scanning” (BMC Biology, 2022) can be followed below.

In the data set the test system is Escherichia coli TOP10. Briefly: shrunken log2 fold change of peptide-encoding DNA abundance (4.5 h post-induction vs induction); higher = less antimicrobial activity (less host growth inhibition). Conditions: time post-induction: 4.5 h; library: site-saturation at positions 5, 18, 19, 20.
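Note: peptides expressed intracellularly from a pBAD plasmid library in pooled LB shake-flask culture, induced with 0.3% L-arabinose, DNA abundance read by NGS, three biological replicates, DESeq2 with apeglm shrinkage.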

For RRIRMRPPRLPRPRPRPKCVPRP, the “shrunken log2 fold change” value was 0.0964.
Consider RRIRVRPPRLPRPRPRPEECPRP, for which the “shrunken log2 fold change” value stood at 0.0155.
The same measure for RRIRQRPPRLPRPRPRPIYNPRP: -0.478; for RRIRTRPPRLPRPRPRPNLCPRP: 0.108; for RRIRDRPPRLPRPRPRPPNEPRP: -0.0231.
Consider RRIRKRPPRLPRPRPRPCDLPRP, for which the “shrunken log2 fold change” value worked out at 0.209.
On to RRIRGRPPRLPRPRPRPIKEPRP, for which the “shrunken log2 fold change” value is -0.104.
Regarding RRIRDRPPRLPRPRPRPFMHPRP, the “shrunken log2 fold change” value was -0.148.
RRIRWRPPRLPRPRPRPACEPRP: the “shrunken log2 fold change” value amounted to 0.11.
The same measure for RRIRQRPPRLPRPRPRPACSPRP: 0.125.
Next, RRIRRRPPRLPRPRPRPVMYPRP: -0.127.
Next, RRIRRRPPRLPRPRPRPFSIPRP: -0.254; RRIRWRPPRLPRPRPRPGNYPRP: -0.00177.
Regarding RRIRERPPRLPRPRPRPQRYPRP, the “shrunken log2 fold change” value is -0.222.
Turning to RRIRIRPPRLPRPRPRPSDTPRP, the “shrunken log2 fold change” value stood at 0.00546.
For the sequence RRIRNRPPRLPRPRPRPCALPRP, the “shrunken log2 fold change” value is -0.135.
On to RRIRERPPRLPRPRPRPNGEPRP, for which the “shrunken log2 fold change” value is -0.0424.
With RRIRARPPRLPRPRPRPLQNPRP, the “shrunken log2 fold change” value amounted to 0.698.
For the sequence RRIRSRPPRLPRPRPRPLKIPRP, the “shrunken log2 fold change” value was -0.309.
Next, RRIRSRPPRLPRPRPRPCWAPRP: 0.143.
Consider RRIRSRPPRLPRPRPRPTRWPRP, for which the “shrunken log2 fold change” value was found to be 0.721.
Next, RRIRMRPPRLPRPRPRPYWRPRP: -0.159; RRIRTRPPRLPRPRPRPAGMPRP: 0.0244.
Next, RRIRSRPPRLPRPRPRPEAHPRP: 0.16; RRIRWRPPRLPRPRPRPHSPPRP: -0.09; RRIRRRPPRLPRPRPRPNRKPRP: 0.105.
For RRIRNRPPRLPRPRPRPIYSPRP, the “shrunken log2 fold change” value is -0.0185.
Consider RRIRKRPPRLPRPRPRPNICPRP, for which the “shrunken log2 fold change” value is -0.0826.
RRIRRRPPRLPRPRPRPVGVPRP: the “shrunken log2 fold change” value came out at 0.705.
RRIRPRPPRLPRPRPRPTGYPRP: the “shrunken log2 fold change” value was -0.151.
Take RRIRNRPPRLPRPRPRPHAKPRP: the “shrunken log2 fold change” value is -0.0658.
For the sequence RRIRHRPPRLPRPRPRPMNNPRP, the “shrunken log2 fold change” value was -0.759.
The same measure for RRIRPRPPRLPRPRPRPVWFPRP: 0.0968; for RRIRGRPPRLPRPRPRPRAVPRP: 1.
As for RRIRFRPPRLPRPRPRPIAAPRP, the “shrunken log2 fold change” value came to 0.417.
As to RRIRPRPPRLPRPRPRPYGKPRP, the “shrunken log2 fold change” value was -0.307.
Consider RRIRKRPPRLPRPRPRPDISPRP, for which the “shrunken log2 fold change” value is -0.0841.
For the sequence RRIRFRPPRLPRPRPRPYNAPRP, the “shrunken log2 fold change” value was -0.714.
As for RRIRDRPPRLPRPRPRPIMLPRP, the “shrunken log2 fold change” value is -0.0957.
Next, RRIRGRPPRLPRPRPRPCFAPRP: 0.789.
As to RRIRDRPPRLPRPRPRPAEVPRP, the “shrunken log2 fold change” value was found to be 0.46.
On to RRIRQRPPRLPRPRPRPIPMPRP, for which the “shrunken log2 fold change” value is -0.639.
Turning to RRIRIRPPRLPRPRPRPEPFPRP, the “shrunken log2 fold change” value was found to be 0.126.
Consider RRIRHRPPRLPRPRPRPMMYPRP, for which the “shrunken log2 fold change” value was -0.0859.
Consider RRIRTRPPRLPRPRPRPACCPRP, for which the “shrunken log2 fold change” value stood at 0.263.
Turning to RRIRMRPPRLPRPRPRPQGFPRP, the “shrunken log2 fold change” value is -0.00865.
Turning to RRIRFRPPRLPRPRPRPDLAPRP, the “shrunken log2 fold change” value amounted to 0.0811.
For RRIRCRPPRLPRPRPRPTKVPRP, the “shrunken log2 fold change” value is -0.413.
With RRIRKRPPRLPRPRPRPPNDPRP, the “shrunken log2 fold change” value turned out to be 0.426.
In the case of RRIRVRPPRLPRPRPRPGHEPRP, the “shrunken log2 fold change” value is -0.0501.
